Measured values published in patent US20220324909A1 (COHBAR, published 2022).
Non-standard residues stand in square brackets, D forms with d. Primed or numbered codes have the meaning given here. No end group written: not given here. PEG12(3) = not defined here

T1: Apelin Receptor (APJ) stably overexpressed in CHO-K1 AGTRL1 Gi cells (human, UniProt P35414 1-380)
T1 sequence (looked up): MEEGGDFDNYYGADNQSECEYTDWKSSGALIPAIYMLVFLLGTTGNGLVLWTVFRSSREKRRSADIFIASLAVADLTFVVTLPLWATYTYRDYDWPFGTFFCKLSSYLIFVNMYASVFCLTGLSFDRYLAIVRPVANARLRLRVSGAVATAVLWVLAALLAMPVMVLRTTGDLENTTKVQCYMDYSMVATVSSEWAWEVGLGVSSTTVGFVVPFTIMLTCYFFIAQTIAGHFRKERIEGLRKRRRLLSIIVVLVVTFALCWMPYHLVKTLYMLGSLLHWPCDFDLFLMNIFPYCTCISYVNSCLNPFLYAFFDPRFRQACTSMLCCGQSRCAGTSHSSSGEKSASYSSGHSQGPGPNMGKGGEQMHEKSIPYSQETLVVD


Key:
[1] = target: ProLink tagged human APJ (Apelin Receptor) in CHO-K1 AGTRL1 β-Arrestin cells (human, UniProt P35414 1-380); experiment: cell-based or functional assay
[2] = target: T1, Apelin Receptor (APJ) stably …; experiment: cell-based or functional assay

| Binder | β-Arrestin recruitment, Percent of Apelin-13 Control Activity (10 µM peptide) [1] | cAMP levels, Percent of Pyr-Apelin-13 Control Activity (10 µM peptide, 10 µM forskolin) [2] |
| --- | --- | --- |
| Ac-RRMMGMVFQSLCG[dA] [SEQ ID NO 61] | 5 % of Apelin-13 control | 1 % of Pyr-Apelin-13 control |
| RRLLGLVFQSLCG[dA] [SEQ ID NO 33] | 9 % of Apelin-13 control | 27 % of Pyr-Apelin-13 control |
| RRMMGMVFQSL [SEQ ID NO 60] | 0 % of Apelin-13 control | 16 % of Pyr-Apelin-13 control |
| RMMGMVF [SEQ ID NO 50] | 0 % of Apelin-13 control | 8 % of Pyr-Apelin-13 control |
| RRMVFQCLEG[dA] [SEQ ID NO 23] | 0 % of Apelin-13 control | -4 % of Pyr-Apelin-13 control |
| Ac-RRMMGMVFQSLCG[dA]-NH2 [SEQ ID NO 63] | 9 % of Apelin-13 control | 21 % of Pyr-Apelin-13 control |
| RRMMGMVFQSLSG[dA] [SEQ ID NO 17] | 10 % of Apelin-13 control | 26 % of Pyr-Apelin-13 control |
| RMMGMVFQSLCG[dA] [SEQ ID NO 54] | 1 % of Apelin-13 control | 20 % of Pyr-Apelin-13 control |
| RRMEVYQCLEG[dA] [SEQ ID NO 32] | 0 % of Apelin-13 control | 4 % of Pyr-Apelin-13 control |
| RXLLGLVFQSLCGA ((AIB) aminoisobutyric acid at position 2; (dA) D-alanine at position 14) [SEQ ID NO 35] | 17 % of Apelin-13 control | 8 % of Pyr-Apelin-13 control |
| RRMMGMVFQ [SEQ ID NO 58] | 0 % of Apelin-13 control | 5 % of Pyr-Apelin-13 control |
| RRMEVYQCLCG[dA] (cysteine pairing not given here) [SEQ ID NO 31] | 0 % of Apelin-13 control | 2 % of Pyr-Apelin-13 control |
| RRMVYQCLEG[dA] [SEQ ID NO 24] | -1 % of Apelin-13 control | 16 % of Pyr-Apelin-13 control |
| KRRMMGMVFQCLCGA ((PEG12) on the N-terminal K (position 1); (dA) D-alanine at position 15) [SEQ ID NO 20] | 1 % of Apelin-13 control | 37 % of Pyr-Apelin-13 control |
| RMMGMVFQSL [SEQ ID NO 53] | 1 % of Apelin-13 control | 6 % of Pyr-Apelin-13 control |
| RRMMGMVFQSLCG[dA]-NH2 [SEQ ID NO 62] | 2 % of Apelin-13 control | 27 % of Pyr-Apelin-13 control |
| RRMMGMVFQS [SEQ ID NO 59] | 0 % of Apelin-13 control | -2 % of Pyr-Apelin-13 control |
| RRMMGMVFQCLCG[dA] (cysteine pairing not given here) [SEQ ID NO 8] | 17 % of Apelin-13 control | 64 % of Pyr-Apelin-13 control |
| RRMMGMVEQSLCG[dA] [SEQ ID NO 38] | 0 % of Apelin-13 control | 12 % of Pyr-Apelin-13 control |

| Binder | β-Arrestin recruitment, Percent of Apelin-13 Control Activity (10 µM peptide) [1] | cAMP levels, Percent of Pyr-Apelin-13 Control Activity (10 µM peptide, 10 µM forskolin) [2] |
| --- | --- | --- |
| RRMMGMVF [SEQ ID NO 57] | 0 % of Apelin-13 control | -1 % of Pyr-Apelin-13 control |
| RXMMGMVFQSLCGA ((AIB) aminoisobutyric acid at position 2; (dA) D-alanine at position 14) [SEQ ID NO 34] | 8 % of Apelin-13 control | 61 % of Pyr-Apelin-13 control |
| RRMMGMV [SEQ ID NO 56] | 0 % of Apelin-13 control | -2 % of Pyr-Apelin-13 control |
| RMMGMVFQS [SEQ ID NO 52] | 0 % of Apelin-13 control | 15 % of Pyr-Apelin-13 control |
| RRMMGMVFQCLCG[dA]K(PEG12(3)) (cysteine pairing not given here) [SEQ ID NO 21] | 1 % of Apelin-13 control | 34 % of Pyr-Apelin-13 control |
| RRMMGMVFQSLEG[dA] [SEQ ID NO 39] | 0 % of Apelin-13 control | -13 % of Pyr-Apelin-13 control |
| RRMAYQCLEG[dA] [SEQ ID NO 27] | -1 % of Apelin-13 control | 9 % of Pyr-Apelin-13 control |
| RRXXGXVFQCLCGA ((Nle) norleucine at positions 3, 4 and 6; (dA) D-alanine at position 14) [SEQ ID NO 18] | 1 % of Apelin-13 control | 30 % of Pyr-Apelin-13 control |
| RRMMGM [SEQ ID NO 55] | 1 % of Apelin-13 control | -7 % of Pyr-Apelin-13 control |
| RREMVYQCLEG[dA] [SEQ ID NO 26] | 0 % of Apelin-13 control | 29 % of Pyr-Apelin-13 control |
| RRMVYQCLCG[dA] (cysteine pairing not given here) [SEQ ID NO 22] | 0 % of Apelin-13 control | 62 % of Pyr-Apelin-13 control |
| RRMVFQCLCG[dA] (cysteine pairing not given here) [SEQ ID NO 19] | 1 % of Apelin-13 control | 27 % of Pyr-Apelin-13 control |
| RRMGYQCLEG[dA] [SEQ ID NO 28] | -1 % of Apelin-13 control | 3 % of Pyr-Apelin-13 control |
| RRMMGMVYQCLEG[dA] [SEQ ID NO 29] | 0 % of Apelin-13 control | 21 % of Pyr-Apelin-13 control |
| RRMMGMVFQCLSG[dA] [SEQ ID NO 16] | 0 % of Apelin-13 control |  |
| RMMGMVFQ [SEQ ID NO 51] | 0 % of Apelin-13 control | 24 % of Pyr-Apelin-13 control |
| RRMMGMVAQCLEG[dA] [SEQ ID NO 30] | -1 % of Apelin-13 control | 31 % of Pyr-Apelin-13 control |
| RREMVYQCLCG[dA] (cysteine pairing not given here) [SEQ ID NO 25] | -1 % of Apelin-13 control | 3 % of Pyr-Apelin-13 control |
